Source: the supplement of paper PMC7877785
± gives the uncertainty stated by the source.

Assay: self-splicing fitness, log relative to wild type (ln ratio); higher = more splicing; Tetrahymena group I intron in knt gene, E. coli kanamycin selection, DiMSum; sequences stand for … in CUCUCU…GGAGGGAAAAGUUAUCAGGCAUGCACCUGGUAGCUAGUCUUUAAACCAAUAGAUUGCAUCGGUUUAAAAGGCAAGACCGUCAAAUUGCGGGAAAGGGGUCAACAGCCGUUCAGUACCAAGUCUCAGGGGAAACUUUGAGAUGGCCUUGCAAAGGGUAUGGUAAUAAGCUGACGGACAUGGUCCUAACCACGCAGCCAAGUCCUAAGUCAACAGAUCUUCUGUUGAUAUGGAUGCAGUUCACAGACUAAAUGUCGGUCGGGGAAGAUGUAUUCUUCUCAUAAGAUAUAGUCGGACCUCUCCUUAAUGGGAGCUAGCGGAUGAAGUGAUGCAACACUGGAGCCGCUGGGAACUAAUUUGUAUGCGAAAGUAUAUUGAUUAGUUUUGGAGUACUCGUGGUCG
In short: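 Six replicate transformations of E. coli BL21(DE3) with a pET-22b(+) library were grown overnight at 37°C or 30°C. The library randomised all eight P1ex-region intron nucleotides, the intron lying in the knt kanamycin-resistance gene, and plates were LB agar with or without 25 μg/mL kanamycin plus 100 μg/mL carbenicillin, 50 μM IPTG and 0.2% rhamnose. Pooled colonies were amplicon-sequenced on an Illumina HiSeq 2500, and fitness is the DiMSum error-weighted combination of wild-type-normalised replicate fold changes, kanamycin versus none.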

Sequence | self-splicing fitness (ln) (30 °C) | self-splicing fitness (ln) (37 °C)
GAGCAGCAAUAUUACGGCAA | -0.276 ± 0.062 | -0.126 ± 0.072
UUACAGCAAUAUUACGCCAC |  | -2.7 ± 0.43
UUCCAGCAAUAUUACGCACA | -0.0937 ± 0.12 | -0.0969 ± 0.13
CGUUAGCAAUAUUACGGAAG | -1.02 ± 0.12 | -0.829 ± 0.12
AUACAGCAAUAUUACGAGAG | -3.39 ± 0.14 | -2.1 ± 0.088
CGCCAGCAAUAUUACGCGUC | -3.41 ± 0.17 | -2.33 ± 0.15
UCCUAGCAAUAUUACGGUCG | -1.69 ± 0.14 | -1.59 ± 0.17
UUCGAGCAAUAUUACGUCAU | -2.56 ± 0.21 | -3.46 ± 0.46
UACCAGCAAUAUUACGGACU | -0.102 ± 0.073 | 0.199 ± 0.098
UCAAAGCAAUAUUACGGUUC | -4.38 ± 0.22 | -2.5 ± 0.15
CGUUAGCAAUAUUACGGCCG | -1.84 ± 0.41 | -0.176 ± 0.35
UAGUAGCAAUAUUACGGACU | -0.0123 ± 0.18 | 0.484 ± 0.15
GGGUAGCAAUAUUACGACUU | -1.03 ± 0.13 | 0.345 ± 0.16
UGCCAGCAAUAUUACGGAUC | -3.04 ± 0.22 | -1.13 ± 0.17
GAGCAGCAAUAUUACGAUCA | -2.14 ± 0.15 | -1.99 ± 0.15
CGCUAGCAAUAUUACGCGGC | -3.25 ± 0.35 | -3.1 ± 0.29
CCUGAGCAAUAUUACGCCAU | -3.2 ± 0.4 | -2.13 ± 0.33
CCCUAGCAAUAUUACGUACC | -1.72 ± 0.18 | -1.05 ± 0.3
GCACAGCAAUAUUACGAACG | -1.53 ± 0.1 | -0.558 ± 0.13
CUCAAGCAAUAUUACGCGUG | -3.3 ± 0.21 | -3.41 ± 0.43
GUCAAGCAAUAUUACGCGGU | -3.16 ± 0.39 | -1.82 ± 0.31
AAAGAGCAAUAUUACGGUUG | -3.84 ± 0.27 | -2.14 ± 0.25
AUUCAGCAAUAUUACGCAAG | -1.26 ± 0.098 | -0.884 ± 0.13
ACAGAGCAAUAUUACGGAAU | -4.08 ± 0.29 | -1.86 ± 0.31
GAUUAGCAAUAUUACGUGCC | 0.747 ± 0.28 | -0.667 ± 0.46

Sequence | self-splicing fitness (ln) (30 °C) | self-splicing fitness (ln) (37 °C)
UGUAAGCAAUAUUACGCUCG | -1.1 ± 0.11 | -0.752 ± 0.13
ACACAGCAAUAUUACGUCCC | -1.16 ± 0.098 | -0.00572 ± 0.12
GUAUAGCAAUAUUACGUAUU | -4.14 ± 0.37 | -1.44 ± 0.2
GCAAAGCAAUAUUACGGCUG | -2.43 ± 0.14 | -1.24 ± 0.17
AAUAAGCAAUAUUACGGAGA | -2.61 ± 0.3 | -1.76 ± 0.36
GGUGAGCAAUAUUACGAUCU | -0.331 ± 0.18 | -0.809 ± 0.27
CUGCAGCAAUAUUACGCGUU | -3.32 ± 0.12 | -2.1 ± 0.16
CGAAAGCAAUAUUACGUCAC |  | -2.32 ± 0.32
AGGCAGCAAUAUUACGUUGU | -2.88 ± 0.15 | -2.52 ± 0.21
AUCAAGCAAUAUUACGCUCG | -0.803 ± 0.091 | -0.236 ± 0.11
UAAGAGCAAUAUUACGCGCU | -3.17 ± 0.28 | -3.35 ± 0.39
UCCUAGCAAUAUUACGUUAU | -2.99 ± 0.19 | -2.59 ± 0.24
AUCGAGCAAUAUUACGCCUC | -2.06 ± 0.39 | -1.98 ± 0.45
CUGGAGCAAUAUUACGUAAG | -1.06 ± 0.083 | -0.0976 ± 0.1
GCAUAGCAAUAUUACGCCAA | -4.09 ± 0.4 | -2.76 ± 0.35
CCCAAGCAAUAUUACGCGCG | -3.78 ± 0.23 | -2.24 ± 0.21
ACUGAGCAAUAUUACGUAAC | -4.25 ± 0.25 | -3.36 ± 0.3
AUUGAGCAAUAUUACGGCAU | -1.17 ± 0.088 | -0.323 ± 0.13
CGAGAGCAAUAUUACGAAUG | -2.96 ± 0.2 | -2.03 ± 0.21
UCGAAGCAAUAUUACGGGGG | -1.86 ± 0.18 | -1.39 ± 0.2
GGGGAGCAAUAUUACGUGCA | -3.32 ± 0.25 | -1.08 ± 0.17
UCUGAGCAAUAUUACGUUGU | -4.12 ± 0.21 | -1.96 ± 0.18
UCAAAGCAAUAUUACGCCAA | -2.7 ± 0.28 | -2.12 ± 0.37
AAACAGCAAUAUUACGGAAU | -3.81 ± 0.16 | -2.4 ± 0.14
AUGAAGCAAUAUUACGCUCU | -0.29 ± 0.15 | 0.111 ± 0.18

Sequence | self-splicing fitness (ln) (30 °C) | self-splicing fitness (ln) (37 °C)
GGCUAGCAAUAUUACGCGCG | -0.69 ± 0.14 | 0.174 ± 0.17
CGGCAGCAAUAUUACGUCUA | -0.607 ± 0.071 | 0.443 ± 0.084
UGCUAGCAAUAUUACGUAGA | -2.3 ± 0.18 | -0.929 ± 0.17
ACUUAGCAAUAUUACGAGCU | -0.379 ± 0.099 | -0.0037 ± 0.14
GGAGAGCAAUAUUACGCGAG | -2.31 ± 0.48 | 
AUAAAGCAAUAUUACGGCCU | 0.372 ± 0.11 | 0.382 ± 0.14
AUACAGCAAUAUUACGGGUC | -3.7 ± 0.21 | -2.48 ± 0.19
GGCUAGCAAUAUUACGUUAG | -3.51 ± 0.32 | -0.919 ± 0.24
GCAAAGCAAUAUUACGUUAA | -1.83 ± 0.14 | -1.45 ± 0.14
CAGCAGCAAUAUUACGUCGA | -1.73 ± 0.12 | -1.25 ± 0.11
GAUCAGCAAUAUUACGACUU | 0.107 ± 0.092 | -0.119 ± 0.11
AUUGAGCAAUAUUACGUUUU | -3.05 ± 0.17 | -1.38 ± 0.22
GCAAAGCAAUAUUACGUAUC | -2.35 ± 0.082 | -1.74 ± 0.076
GUUGAGCAAUAUUACGCAGA | -2.67 ± 0.34 | -3.6 ± 0.46
AAUAAGCAAUAUUACGGGAG | -2.91 ± 0.19 | -2.14 ± 0.14
UUUCAGCAAUAUUACGAGGA | -0.995 ± 0.18 | -0.121 ± 0.22
AACAAGCAAUAUUACGGUCA | -0.52 ± 0.043 | 0.199 ± 0.062
ACAUAGCAAUAUUACGGCUC | -0.967 ± 0.092 | -0.28 ± 0.12
AUGCAGCAAUAUUACGUCGA | -1.61 ± 0.09 | -0.738 ± 0.11
GAUCAGCAAUAUUACGUAGG | -1.87 ± 0.1 | -1.48 ± 0.14
UCUUAGCAAUAUUACGGUUA |  | -2.37 ± 0.39
CAGUAGCAAUAUUACGCGCG | -0.327 ± 0.16 | 0.324 ± 0.18
AUUCAGCAAUAUUACGACCU | -0.21 ± 0.095 | 0.317 ± 0.12
GGCAAGCAAUAUUACGUUAG | -3.77 ± 0.2 | -2.57 ± 0.19
CCUAAGCAAUAUUACGUAUG | -1.82 ± 0.082 | -0.95 ± 0.087

Sequence | self-splicing fitness (ln) (30 °C) | self-splicing fitness (ln) (37 °C)
CCUAAGCAAUAUUACGGGAA | -3.52 ± 0.22 | -1.83 ± 0.2
GUAGAGCAAUAUUACGUAUC | -2.44 ± 0.12 | -1.58 ± 0.13
UAUUAGCAAUAUUACGAAAG | -2.42 ± 0.37 | 
AGGAAGCAAUAUUACGGGCC | -3.5 ± 0.42 | -0.18 ± 0.2
GUCAAGCAAUAUUACGAGCC | -4.32 ± 0.25 | -2.26 ± 0.26
GAAAAGCAAUAUUACGUGCG | -1.44 ± 0.095 | 0.264 ± 0.12
CCCUAGCAAUAUUACGUCCA | -2.95 ± 0.23 | -2.83 ± 0.31
UUGUAGCAAUAUUACGCGUC | -3.51 ± 0.42 | -0.917 ± 0.26
CCACAGCAAUAUUACGGGCU | -4.83 ± 0.27 | -3.07 ± 0.18
AAAAAGCAAUAUUACGUCAA | -1.8 ± 0.08 | -0.836 ± 0.073
GGCCAGCAAUAUUACGACCU | -1.96 ± 0.19 | -0.345 ± 0.22
GCUAAGCAAUAUUACGAGUU | -1.33 ± 0.082 | -0.818 ± 0.11
GGUAAGCAAUAUUACGAUUA | -0.734 ± 0.094 | -0.221 ± 0.11
AUCGAGCAAUAUUACGGUCU | -3.03 ± 0.2 | -1.77 ± 0.2
GGCAAGCAAUAUUACGUGGA | -1.28 ± 0.077 | -0.277 ± 0.073
UGGUAGCAAUAUUACGUUGA | -0.502 ± 0.17 | -0.66 ± 0.15
UGGUAGCAAUAUUACGGGUA | -2.28 ± 0.14 | -0.719 ± 0.12
UCUGAGCAAUAUUACGAGGU | -3.18 ± 0.23 | 
UGCCAGCAAUAUUACGUAGG | -3.34 ± 0.25 | -0.145 ± 0.17
CAGGAGCAAUAUUACGCCGA | -1.75 ± 0.4 | 
CCAAAGCAAUAUUACGAUAU | -4.16 ± 0.15 | -2.79 ± 0.13
AAUAAGCAAUAUUACGGUUG | -2.86 ± 0.12 | -1.97 ± 0.14
